Test results: the Human Domainome abundance scans (Beltran et al. 2025)
± gives the uncertainty stated by the source.

B1: Zinc finger homeobox protein 4, residues 2183 to 2238; numbered along this chain, Q86UP3 (parent)
chain: SSRTRFTDYQLRVLQDFFDTNAYPKDDEIEQLSTVLNLPTRVIVVWFQNARQKARK

Variants of: B1
Assay: abundance fitness (aPCA) (normalised: wild type 0, dead -1); higher = more abundant; growth selection in yeast, the domain comes from the species named
Conditions: Homo sapiens

In order of rising abundance fitness:
1. WSRTRFTDYQLRVLQDFFDTNAYPKDDEIEQLSTVLNLPTRVIVVWFQNARQKARK [S1W]  -1.16 ± 0.35
2. SSRARFTDYQLRVLQDFFDTNAYPKDDEIEQLSTVLNLPTRVIVVWFQNARQKARK [T4A]  -0.698 ± 0.14
3. SSRVRFTDYQLRVLQDFFDTNAYPKDDEIEQLSTVLNLPTRVIVVWFQNARQKARK [T4V]  -0.602 ± 0.11
4. PSRTRFTDYQLRVLQDFFDTNAYPKDDEIEQLSTVLNLPTRVIVVWFQNARQKARK [S1P]  -0.575 ± 0.29
5. SSRKRFTDYQLRVLQDFFDTNAYPKDDEIEQLSTVLNLPTRVIVVWFQNARQKARK [T4K]  -0.571 ± 0.15
6. SSRRRFTDYQLRVLQDFFDTNAYPKDDEIEQLSTVLNLPTRVIVVWFQNARQKARK [T4R]  -0.533 ± 0.08
7. SWRTRFTDYQLRVLQDFFDTNAYPKDDEIEQLSTVLNLPTRVIVVWFQNARQKARK [S2W]  -0.477 ± 0.17
8. SSRCRFTDYQLRVLQDFFDTNAYPKDDEIEQLSTVLNLPTRVIVVWFQNARQKARK [T4C]  -0.446 ± 0.13
9. SSRWRFTDYQLRVLQDFFDTNAYPKDDEIEQLSTVLNLPTRVIVVWFQNARQKARK [T4W]  -0.433 ± 0.12
10. SARTRFTDYQLRVLQDFFDTNAYPKDDEIEQLSTVLNLPTRVIVVWFQNARQKARK [S2A]  -0.407 ± 0.094
11. SSRERFTDYQLRVLQDFFDTNAYPKDDEIEQLSTVLNLPTRVIVVWFQNARQKARK [T4E]  -0.368 ± 0.13
12. SSRGRFTDYQLRVLQDFFDTNAYPKDDEIEQLSTVLNLPTRVIVVWFQNARQKARK [T4G]  -0.328 ± 0.092
13. SSRQRFTDYQLRVLQDFFDTNAYPKDDEIEQLSTVLNLPTRVIVVWFQNARQKARK [T4Q]  -0.269 ± 0.16
14. YSRTRFTDYQLRVLQDFFDTNAYPKDDEIEQLSTVLNLPTRVIVVWFQNARQKARK [S1Y]  -0.241 ± 0.17
15. SFRTRFTDYQLRVLQDFFDTNAYPKDDEIEQLSTVLNLPTRVIVVWFQNARQKARK [S2F]  -0.229 ± 0.14
16. SSRFRFTDYQLRVLQDFFDTNAYPKDDEIEQLSTVLNLPTRVIVVWFQNARQKARK [T4F]  -0.182 ± 0.16
17. SLRTRFTDYQLRVLQDFFDTNAYPKDDEIEQLSTVLNLPTRVIVVWFQNARQKARK [S2L]  -0.144 ± 0.098
18. SSRTGFTDYQLRVLQDFFDTNAYPKDDEIEQLSTVLNLPTRVIVVWFQNARQKARK [R5G]  -0.109 ± 0.11
19. SSRPRFTDYQLRVLQDFFDTNAYPKDDEIEQLSTVLNLPTRVIVVWFQNARQKARK [T4P]  -0.109 ± 0.11
20. SRRTRFTDYQLRVLQDFFDTNAYPKDDEIEQLSTVLNLPTRVIVVWFQNARQKARK [S2R]  -0.106 ± 0.091
21. SYRTRFTDYQLRVLQDFFDTNAYPKDDEIEQLSTVLNLPTRVIVVWFQNARQKARK [S2Y]  -0.07 ± 0.14
22. SVRTRFTDYQLRVLQDFFDTNAYPKDDEIEQLSTVLNLPTRVIVVWFQNARQKARK [S2V]  -0.043 ± 0.087
23. ISRTRFTDYQLRVLQDFFDTNAYPKDDEIEQLSTVLNLPTRVIVVWFQNARQKARK [S1I]  -0.026 ± 0.34
24. SPRTRFTDYQLRVLQDFFDTNAYPKDDEIEQLSTVLNLPTRVIVVWFQNARQKARK [S2P]  -0.012 ± 0.12
25. TSRTRFTDYQLRVLQDFFDTNAYPKDDEIEQLSTVLNLPTRVIVVWFQNARQKARK [S1T]  -0.009 ± 0.16
26. SGRTRFTDYQLRVLQDFFDTNAYPKDDEIEQLSTVLNLPTRVIVVWFQNARQKARK [S2G]  -0.004 ± 0.077
27. SSRTPFTDYQLRVLQDFFDTNAYPKDDEIEQLSTVLNLPTRVIVVWFQNARQKARK [R5P]  0.001 ± 0.12
28. SSRDRFTDYQLRVLQDFFDTNAYPKDDEIEQLSTVLNLPTRVIVVWFQNARQKARK [T4D]  0.015 ± 0.16
29. SSRSRFTDYQLRVLQDFFDTNAYPKDDEIEQLSTVLNLPTRVIVVWFQNARQKARK [T4S]  0.019 ± 0.087
30. MSRTRFTDYQLRVLQDFFDTNAYPKDDEIEQLSTVLNLPTRVIVVWFQNARQKARK [S1M]  0.045 ± 0.28
31. SSRNRFTDYQLRVLQDFFDTNAYPKDDEIEQLSTVLNLPTRVIVVWFQNARQKARK [T4N]  0.047 ± 0.14
32. SSQTRFTDYQLRVLQDFFDTNAYPKDDEIEQLSTVLNLPTRVIVVWFQNARQKARK [R3Q]  0.053 ± 0.11
33. ASRTRFTDYQLRVLQDFFDTNAYPKDDEIEQLSTVLNLPTRVIVVWFQNARQKARK [S1A]  0.062 ± 0.2
34. SSRLRFTDYQLRVLQDFFDTNAYPKDDEIEQLSTVLNLPTRVIVVWFQNARQKARK [T4L]  0.072 ± 0.083
35. SSPTRFTDYQLRVLQDFFDTNAYPKDDEIEQLSTVLNLPTRVIVVWFQNARQKARK [R3P]  0.09 ± 0.12
36. CSRTRFTDYQLRVLQDFFDTNAYPKDDEIEQLSTVLNLPTRVIVVWFQNARQKARK [S1C]  0.092 ± 0.18
37. SSRHRFTDYQLRVLQDFFDTNAYPKDDEIEQLSTVLNLPTRVIVVWFQNARQKARK [T4H]  0.096 ± 0.13
38. SMRTRFTDYQLRVLQDFFDTNAYPKDDEIEQLSTVLNLPTRVIVVWFQNARQKARK [S2M]  0.102 ± 0.17
39. FSRTRFTDYQLRVLQDFFDTNAYPKDDEIEQLSTVLNLPTRVIVVWFQNARQKARK [S1F]  0.106 ± 0.2
40. STRTRFTDYQLRVLQDFFDTNAYPKDDEIEQLSTVLNLPTRVIVVWFQNARQKARK [S2T]  0.151 ± 0.13
41. SSRTLFTDYQLRVLQDFFDTNAYPKDDEIEQLSTVLNLPTRVIVVWFQNARQKARK [R5L]  0.193 ± 0.1
42. SSRTHFTDYQLRVLQDFFDTNAYPKDDEIEQLSTVLNLPTRVIVVWFQNARQKARK [R5H]  0.194 ± 0.15
43. SSRTKFTDYQLRVLQDFFDTNAYPKDDEIEQLSTVLNLPTRVIVVWFQNARQKARK [R5K]  0.195 ± 0.2
44. SCRTRFTDYQLRVLQDFFDTNAYPKDDEIEQLSTVLNLPTRVIVVWFQNARQKARK [S2C]  0.197 ± 0.096
45. SSYTRFTDYQLRVLQDFFDTNAYPKDDEIEQLSTVLNLPTRVIVVWFQNARQKARK [R3Y]  0.198 ± 0.16
46. SSETRFTDYQLRVLQDFFDTNAYPKDDEIEQLSTVLNLPTRVIVVWFQNARQKARK [R3E]  0.201 ± 0.11
47. SSRTEFTDYQLRVLQDFFDTNAYPKDDEIEQLSTVLNLPTRVIVVWFQNARQKARK [R5E]  0.218 ± 0.22
48. SSRTIFTDYQLRVLQDFFDTNAYPKDDEIEQLSTVLNLPTRVIVVWFQNARQKARK [R5I]  0.238 ± 0.13
49. SSWTRFTDYQLRVLQDFFDTNAYPKDDEIEQLSTVLNLPTRVIVVWFQNARQKARK [R3W]  0.253 ± 0.094
50. SDRTRFTDYQLRVLQDFFDTNAYPKDDEIEQLSTVLNLPTRVIVVWFQNARQKARK [S2D]  0.254 ± 0.11
51. SQRTRFTDYQLRVLQDFFDTNAYPKDDEIEQLSTVLNLPTRVIVVWFQNARQKARK [S2Q]  0.262 ± 0.16
52. SSRTCFTDYQLRVLQDFFDTNAYPKDDEIEQLSTVLNLPTRVIVVWFQNARQKARK [R5C]  0.272 ± 0.11
53. GSRTRFTDYQLRVLQDFFDTNAYPKDDEIEQLSTVLNLPTRVIVVWFQNARQKARK [S1G]  0.276 ± 0.15
54. SSGTRFTDYQLRVLQDFFDTNAYPKDDEIEQLSTVLNLPTRVIVVWFQNARQKARK [R3G]  0.297 ± 0.065
55. SSRTMFTDYQLRVLQDFFDTNAYPKDDEIEQLSTVLNLPTRVIVVWFQNARQKARK [R5M]  0.309 ± 0.15
56. SSKTRFTDYQLRVLQDFFDTNAYPKDDEIEQLSTVLNLPTRVIVVWFQNARQKARK [R3K]  0.31 ± 0.12
57. SSFTRFTDYQLRVLQDFFDTNAYPKDDEIEQLSTVLNLPTRVIVVWFQNARQKARK [R3F]  0.32 ± 0.2
58. SSRYRFTDYQLRVLQDFFDTNAYPKDDEIEQLSTVLNLPTRVIVVWFQNARQKARK [T4Y]  0.323 ± 0.16
59. SSVTRFTDYQLRVLQDFFDTNAYPKDDEIEQLSTVLNLPTRVIVVWFQNARQKARK [R3V]  0.334 ± 0.08
60. SSRTDFTDYQLRVLQDFFDTNAYPKDDEIEQLSTVLNLPTRVIVVWFQNARQKARK [R5D]  0.338 ± 0.29
61. SSDTRFTDYQLRVLQDFFDTNAYPKDDEIEQLSTVLNLPTRVIVVWFQNARQKARK [R3D]  0.343 ± 0.14
62. SSMTRFTDYQLRVLQDFFDTNAYPKDDEIEQLSTVLNLPTRVIVVWFQNARQKARK [R3M]  0.344 ± 0.12
63. SSRTNFTDYQLRVLQDFFDTNAYPKDDEIEQLSTVLNLPTRVIVVWFQNARQKARK [R5N]  0.358 ± 0.14
64. SSLTRFTDYQLRVLQDFFDTNAYPKDDEIEQLSTVLNLPTRVIVVWFQNARQKARK [R3L]  0.358 ± 0.089
65. SSATRFTDYQLRVLQDFFDTNAYPKDDEIEQLSTVLNLPTRVIVVWFQNARQKARK [R3A]  0.358 ± 0.083
66. SSNTRFTDYQLRVLQDFFDTNAYPKDDEIEQLSTVLNLPTRVIVVWFQNARQKARK [R3N]  0.364 ± 0.13
67. SSHTRFTDYQLRVLQDFFDTNAYPKDDEIEQLSTVLNLPTRVIVVWFQNARQKARK [R3H]  0.367 ± 0.12
68. SSTTRFTDYQLRVLQDFFDTNAYPKDDEIEQLSTVLNLPTRVIVVWFQNARQKARK [R3T]  0.368 ± 0.13
69. SSRMRFTDYQLRVLQDFFDTNAYPKDDEIEQLSTVLNLPTRVIVVWFQNARQKARK [T4M]  0.392 ± 0.11
70. SSCTRFTDYQLRVLQDFFDTNAYPKDDEIEQLSTVLNLPTRVIVVWFQNARQKARK [R3C]  0.484 ± 0.099
71. SSITRFTDYQLRVLQDFFDTNAYPKDDEIEQLSTVLNLPTRVIVVWFQNARQKARK [R3I]  0.489 ± 0.16
